Reference: US20230338465A1 (VITRUVIAE, published 2023)
“And” between values parts separate entries of the source, which are not always exact repeats. Identical values can stand only once. Like-named read-outs stand apart in the source and are kept apart here.

Legend:
Test in all cases: ELISA, 2.5 mM CaCl2
SARS-Cov-2 S D614G [1] = target: T1, SARS-Cov-2 S D614G (SARS-CoV-2, UniProt P0DTC2 16-1213)
T1 construct: also called SARS-CoV-2 S protein (D614G); SARS-COV2 S Protein

SARS-Cov-2 S D614G [2] = target: T1, SARS-Cov-2 S D614G; remark: listed apart in the source
SARS-Cov-2 S D614G [3] = target: T1, SARS-Cov-2 S D614G; remark: listed apart in the source
SARS-Cov-2 S D614G [4] = target: T1, SARS-Cov-2 S D614G; remark: listed apart in the source

Binder	EC50 (SARS-Cov-2 S D614G [1]) [nM]	EC50 (SARS-Cov-2 S D614G [2])	EC50 (SARS-Cov-2 S D614G [3]) [µg/mL]	EC50 (SARS-Cov-2 S D614G [4])
VP020 (V-CTLD-1 with V-IGG4-ADC-B-Fc) (Fc fusion, also called CT-G4-B-DC; VIT-308) ERLCHPCPWEWTFFQGNCYFMSNSQRNWHDSITACKEVGAQLVVIKSAEEQNFLQLQSSRSNRFTWMGLSDLNQEGTWQWVDGSPLLPSFKQYWNRGEPNNVGEEDCAEFSGNGWNDDKCNLAKFWICKKSAASCSGGGGSGGGGSGGGGSKYGPPCPPCPAPEAAGGPSVFLFPPKPKDTLMISRTPEVTCVVVDVSQEDPEVQFNWYVDGVEVHNAKTKPREEQFNSTYRVVSVLTVLHQDWLNGKEYKCAVSNKGLPSSIEKTISKCKGQPREPQVYTLPPSQEEMTKNQVSLTCLVKGFYPSDIAVEWESNGQPENNYKTTPPVLDSDGSFLLYSKLTVDKSRWQEGNVFSCSVMHEALHNHYTQKSLSLSLGK	52.5	55.6 µg/mL and 641 nM	4.5	–
VP019-F2 (multimer fraction F2 of VP019, V-TIM1-1 with V-IGG4-ADC-A-Fc) (Fc fusion, also called TM-G4-A-DC; VIT-307) SVKVGGEAGPSVTLPCHYSGAVTSMCWNRGSCSLFTCQNGIVWTNGTHVTYRKDTRYKLLGDLSRRDVSLTIENTAVSDSGVYCCRVEHRGWFNDMKITVSLEIVGGGGSGGGGSGGGGSKYGPPCPPCPAPEAAGGPSVFLFPPKPKDTLMISRTPEVTCVVVDVSQEDPEVQFNWYVDGVEVHNAKTKPREEQFNSTYRVVSVLTVLHQDWLNGKEYKCAVSNKGLPSSIEKTISKCKGQPREPQVYTLPPSQEEMTKNQVSLTCLVKGFYPSDIAVEWESNGQPENNYKTTPPVLDSDGSFFLYSRLTVDKSRWQEGNVFSCSVMHEALHNHYTQKSLSLSLGK	21.1	0.9 µg/mL and 10.6 nM	1.7	–
VP025-F4 (fraction 4 of VP025-CT, VP019/VP020 heterodimer, about 78% pure) (Fc fusion, also called VP025-F4 (78% pure heterodimer)) chain 1: SVKVGGEAGPSVTLPCHYSGAVTSMCWNRGSCSLFTCQNGIVWTNGTHVTYRKDTRYKLLGDLSRRDVSLTIENTAVSDSGVYCCRVEHRGWFNDMKITVSLEIVGGGGSGGGGSGGGGSKYGPPCPPCPAPEAAGGPSVFLFPPKPKDTLMISRTPEVTCVVVDVSQEDPEVQFNWYVDGVEVHNAKTKPREEQFNSTYRVVSVLTVLHQDWLNGKEYKCAVSNKGLPSSIEKTISKCKGQPREPQVYTLPPSQEEMTKNQVSLTCLVKGFYPSDIAVEWESNGQPENNYKTTPPVLDSDGSFFLYSRLTVDKSRWQEGNVFSCSVMHEALHNHYTQKSLSLSLGK chain 2: ERLCHPCPWEWTFFQGNCYFMSNSQRNWHDSITACKEVGAQLVVIKSAEEQNFLQLQSSRSNRFTWMGLSDLNQEGTWQWVDGSPLLPSFKQYWNRGEPNNVGEEDCAEFSGNGWNDDKCNLAKFWICKKSAASCSGGGGSGGGGSGGGGSKYGPPCPPCPAPEAAGGPSVFLFPPKPKDTLMISRTPEVTCVVVDVSQEDPEVQFNWYVDGVEVHNAKTKPREEQFNSTYRVVSVLTVLHQDWLNGKEYKCAVSNKGLPSSIEKTISKCKGQPREPQVYTLPPSQEEMTKNQVSLTCLVKGFYPSDIAVEWESNGQPENNYKTTPPVLDSDGSFLLYSKLTVDKSRWQEGNVFSCSVMHEALHNHYTQKSLSLSLGK	10	–	0.8	–
VP025-CT (co-transfected product of genes TM-G4-A-DC and CT-G4-B-DC, heterodimer mixture) (Fc fusion, also called VP025-CT (heterodimer mixture)) chain 1: SVKVGGEAGPSVTLPCHYSGAVTSMCWNRGSCSLFTCQNGIVWTNGTHVTYRKDTRYKLLGDLSRRDVSLTIENTAVSDSGVYCCRVEHRGWFNDMKITVSLEIVGGGGSGGGGSGGGGSKYGPPCPPCPAPEAAGGPSVFLFPPKPKDTLMISRTPEVTCVVVDVSQEDPEVQFNWYVDGVEVHNAKTKPREEQFNSTYRVVSVLTVLHQDWLNGKEYKCAVSNKGLPSSIEKTISKCKGQPREPQVYTLPPSQEEMTKNQVSLTCLVKGFYPSDIAVEWESNGQPENNYKTTPPVLDSDGSFFLYSRLTVDKSRWQEGNVFSCSVMHEALHNHYTQKSLSLSLGK chain 2: ERLCHPCPWEWTFFQGNCYFMSNSQRNWHDSITACKEVGAQLVVIKSAEEQNFLQLQSSRSNRFTWMGLSDLNQEGTWQWVDGSPLLPSFKQYWNRGEPNNVGEEDCAEFSGNGWNDDKCNLAKFWICKKSAASCSGGGGSGGGGSGGGGSKYGPPCPPCPAPEAAGGPSVFLFPPKPKDTLMISRTPEVTCVVVDVSQEDPEVQFNWYVDGVEVHNAKTKPREEQFNSTYRVVSVLTVLHQDWLNGKEYKCAVSNKGLPSSIEKTISKCKGQPREPQVYTLPPSQEEMTKNQVSLTCLVKGFYPSDIAVEWESNGQPENNYKTTPPVLDSDGSFLLYSKLTVDKSRWQEGNVFSCSVMHEALHNHYTQKSLSLSLGK	13.8	6.9 µg/mL and 82.5 nM	1.2	4 µg/mL and 47.6 nM
